T1: HepG2 cells (which express ASGR1) (Homo sapiens, UniProt P07306)
T1 construct: endogenous in cells; host or cells: HepG2
T1 sequence (P07306 1-291): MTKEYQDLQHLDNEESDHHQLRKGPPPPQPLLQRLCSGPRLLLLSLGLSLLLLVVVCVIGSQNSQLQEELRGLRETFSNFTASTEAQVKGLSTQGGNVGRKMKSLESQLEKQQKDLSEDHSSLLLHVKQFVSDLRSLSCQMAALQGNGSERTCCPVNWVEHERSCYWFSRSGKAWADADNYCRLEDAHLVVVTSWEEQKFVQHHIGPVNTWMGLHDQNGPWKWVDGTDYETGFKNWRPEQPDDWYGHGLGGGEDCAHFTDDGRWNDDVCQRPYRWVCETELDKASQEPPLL


Each molecule was assayed against T1, HepG2 cells (which express ASGR1) (assay: Guava HepG2 cell binding screen of anti-ASGR1 mAbs). Settings: humanized L4L clones; Good / Poor.
Method: Additionally, hybridomas producing monoclonal antibodies (mAbs) specific for human ASGR1 were prepared from Balb/C mice immunized with ASGR1-AviHis at a service provider using their propriety protocol. Antibody heavy and light chain sequences were obtained, amplified, and cloned. Clone supernatants containing the expressed mAbs were screened for binding to a human ASGR1-IgG1Fc fusion protein, and those with a positive signal as measured by enzyme linked immunosorbent assay (ELISA) were screened for cell binding on HepG2 cells (which express ASGR1). […] The isolated mAbs were further analyzed for the additional characteristics including, for example, titer, low aggregate content following protein A purification, high titer, lack of cross-blocking of ligand GalNac, calcium sensitivity, and cross-reactivity with rat ASGR1 protein.

Guava HepG2 Screen | Molecule
Good | hzL4L-2: humanized L4L clone: "reduction in percent purity ... seen with the chimeric and hzL4L-1, -2 and -6" (antibody, V domains shown) VH: QVQLQESGPGLVKPSQTLSLTCTVSGGSITSDYAWNWIRQHPGKGLEWIGYISYSGSTRYNPSLKSRISITRDTSKNQFSLKLSSVTAADTAVYYCARRYRYDEGYGMDYWGQGTTVTVSS VL: DIQMTQSPSSLSASVGDRVTITCRASENIYSNLAWYQQKPGKAPKLLIYAATNLADGVPSRFSGSGSGTDFTLTISSLQPEDFATYYCQHFWGTPPWTFGGGTKVEIK
Good | hzL4L-3 (antibody, V domains shown) VH: QVQLQESGPGLVKPSQTLSLTCTVSGYSITSDYAWNWIRQHPGKGLEWIGYISYSGSTRYNPSLKSRISITRDTSKNQFSLKLSSVTAADTAVYYCARRYRYDEGYGMDYWGQGTTVTVSS VL: DIQMTQSPSSLSASVGDRVTITCRASENIYSNLAWYQQKPGKAPKLLIYAATNLADGVPSRFSGSGSGTDFTLTISSLQPEDFATYYCQHFWGTPPWTFGGGTKVEIK
Good | hzL4L-6: humanized L4L clone: "reduction in percent purity ... seen with the chimeric and hzL4L-1, -2 and -6" (antibody, V domains shown) VH: QVQLQESGPGLVKPSQTLSLTCTVSGYSITSDYAWNWIRQHPGKGLEWIGYISYSGSTRYNPSLKSRVTITRDTSKNQFSLKLSSVTAADTAVYYCARRYRYDEGYGMDYWGQGTTVTVSS VL: DIQMTQSPSSLSASVGDRVTITCRASENIYSNLAWYQQKPGKAPKLLIYAATNLADGVPSRFSGSGSGTDFTLTISSLQPEDFATYYCQHFWGTPPWTFGGGTKVEIK
Poor | hzL4L-4 (antibody, V domains shown) VH: QVQLQESGPGLVKPSQTLSLTCTVSGYSITSDYAWNWIRQHPGKGLEWIGYISYSGSTRYNPSLKSRVTISVDTSKNQFSLKLSSVTAADTAVYYCARRYRYDEGYGMDYWGQGTTVTVSS VL: DIQMTQSPSSLSASVGDRVTITCRASENIYSNLAWYQQKPGKAPKLLIYAATNLADGVPSRFSGSGSGTDFTLTISSLQPEDFATYYCQHFWGTPPWTFGGGTKVEIK
Good | hzL4L-10: "Humanized sequences hzL4L-10 through hzL4L-14 were further modified by adding additional mutations in the light chain CDR2/FR3 junction, namely D56S ..., D56E ... or G57A" (antibody, V domains shown) VH: QVQLQESGPGLVKPSQTLSLTCTVSGYSITSDYAWNWIRQHPGKGLEWIGYISYSGSTRYNPSLKSRISITRDTSKNQFSLKLSSVTAADTAVYYCARRYRYDEGYGMDYWGQGTTVTVSS VL: DIQMTQSPSSLSASVGDRVTITCRASENIYSNLAWYQQKPGKAPKLLIYAATNLASGVPSRFSGSGSGTDFTLTISSLQPEDFATYYCQHFWGTPPWTFGGGTKVEIK
Poor | hzL4L-8 (antibody, V domains shown) VH: QVQLQESGPGLVKPSQTLSLTCTVSGYSITSDYAWNWIRQHPGKGLEWIGYISYSGSTRYNPSLKSRISISVDTSKNQFSLKLSSVTAADTAVYYCARRYRYDEGYGMDYWGQGTTVTVSS VL: DIQMTQSPSSLSASVGDRVTITCRASENIYSNLAWYQQKPGKAPKLLIYAATNLADGVPSRFSGSGSGTDFTLTISSLQPEDFATYYCQHFWGTPPWTFGGGTKVEIK
Poor | hzL4L-9 (antibody, V domains shown) VH: QVQLQESGPGLVKPSQTLSLTCTVSGYSISSDYAWNWIRQHPGKGLEWIGYISYSGSTRYNPSLKSRISISVDTSKNQFSLKLSSVTAADTAVYYCARRYRYDEGYGMDYWGQGTTVTVSS VL: DIQMTQSPSSLSASVGDRVTITCRASENIYSNLAWYQQKPGKAPKLLIYAATNLADGVPSRFSGSGSGTDFTLTISSLQPEDFATYYCQHFWGTPPWTFGGGTKVEIK
Good | hzL4L-5 (antibody, V domains shown) VH: QVQLQESGPGLVKPSQTLSLTCTVSGYSISSDYAWNWIRQHPGKGLEWIGYISYSGSTRYNPSLKSRISITRDTSKNQFSLKLSSVTAADTAVYYCARRYRYDEGYGMDYWGQGTTVTVSS VL: DIQMTQSPSSLSASVGDRVTITCRASENIYSNLAWYQQKPGKAPKLLIYAATNLADGVPSRFSGSGSGTDFTLTISSLQPEDFATYYCQHFWGTPPWTFGGGTKVEIK
Good | hzL4L-11: "Humanized sequences hzL4L-10 through hzL4L-14 were further modified by adding additional mutations in the light chain CDR2/FR3 junction, namely D56S ..., D56E ... or G57A" (antibody, V domains shown) VH: QVQLQESGPGLVKPSQTLSLTCTVSGYSITSDYAWNWIRQHPGKGLEWIGYISYSGSTRYNPSLKSRISITRDTSKNQFSLKLSSVTAADTAVYYCARRYRYDEGYGMDYWGQGTTVTVSS VL: DIQMTQSPSSLSASVGDRVTITCRASENIYSNLAWYQQKPGKAPKLLIYAATNLAEGVPSRFSGSGSGTDFTLTISSLQPEDFATYYCQHFWGTPPWTFGGGTKVEIK

From patent US20210130473A1, “TGFßR1 INHIBITOR-ASGR ANTIBODY CONJUGATES AND USES THEREOF” (Silverback Therapeutics, Inc., priority 2019, published 2021)
